Holding throughout (assay): coupled fluorogenic assay: chitinase B releases 4MU from 4MU-chitooligosaccharide product
One series addresses T1, SmNodC (Sinorhizobium meliloti, UniProt P04341).
T1 construct: gene nodC; full-length (1-426), C-terminal mCherry-His fusion from pEXmCherry, E. coli BL21(DE3) C43 membrane fraction, not purified
T1 sequence (P04341 1-426): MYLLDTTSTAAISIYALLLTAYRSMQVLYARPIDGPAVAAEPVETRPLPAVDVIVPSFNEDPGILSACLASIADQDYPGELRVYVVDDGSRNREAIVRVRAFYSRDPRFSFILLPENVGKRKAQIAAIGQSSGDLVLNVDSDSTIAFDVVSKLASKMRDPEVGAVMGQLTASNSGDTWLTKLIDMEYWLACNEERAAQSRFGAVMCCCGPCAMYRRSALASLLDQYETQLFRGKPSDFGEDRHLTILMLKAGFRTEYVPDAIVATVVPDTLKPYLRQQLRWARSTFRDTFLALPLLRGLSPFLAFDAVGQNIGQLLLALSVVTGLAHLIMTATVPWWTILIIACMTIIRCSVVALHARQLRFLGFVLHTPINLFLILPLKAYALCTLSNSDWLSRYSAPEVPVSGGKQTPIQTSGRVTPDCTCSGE
In kind it is biochemical. The text has this:
coupled fluorogenic assay: chitinase B releases 4MU from 4MU-chitooligosaccharide product on SmNodC | Nikkomycin Z is a competitive inhibitor with the substrate UDP-GlcNAc, with a Ki of […]

Substrate in series [1]: CC(=O)N[C@H]1[C@H](Oc2ccc3c(C)cc(=O)oc3c2)O[C@H](CO)[C@@H](O)[C@@H]1O
In kind it is biochemical, Sinorhizobium meliloti. As to conditions: acceptor substrate, excess UDP-GlcNAc as co-substrate, 10 mM MgCl2, pH 7.5, 250 mM NaCl, 20 °C, E. coli membrane fraction.

Substrate in series [2]: CC(=O)N[C@H]1[C@@H](OP(=O)(O)OP(=O)(O)OC[C@H]2O[C@@H](n3ccc(=O)[nH]c3=O)[C@H](O)[C@@H]2O)O[C@H](CO)[C@@H](O)[C@@H]1O
In kind it is biochemical, Sinorhizobium meliloti. The note with it: excess 4MU-GlcNAc as co-substrate, 10 mM MgCl2, pH 7.5, 250 mM NaCl, 20 °C, E. coli membrane fraction.

Results on two molecules are retold here after PMC4132801, “A Structural and Biochemical Model of Processive Chitin Synthesis” (The Journal of Biological Chemistry, 2014).

As for `C[C@@H]([C@H](N)C(=O)N[C@H](C(=O)O)[C@H]1O[C@@H](n2ccc(=O)[nH]c2=O)[C@H](O)[C@@H]1O)[C@H](O)c1ccc(O)cn1` [Nikkomycin Z], at SmNodC, the Ki worked out at 250 nM.

B1: SmNodC (Sinorhizobium meliloti 1021) (protein)
chain: T1 sequence (P04341 1-426)
notes: full-length (1-426), C-terminal mCherry-His fusion from pEXmCherry, E. coli BL21(DE3) C43 membrane fraction, not purified
Regarding B1, the Michaelis constant (Km) in series [1] came to 1600 ± 400 µM; in series [2], 90 ± 15 µM.

A word on the Ki: it is a measure of affinity in units of concentration, obtained from inhibition or displacement. High values mean weaker binding, low ones tighter binding. In general, Km refers to the substrate concentration at which the rate is half of its maximum.
